Assay results reported in patent US20020012949A1, “Assay systems for leptin-enhancing agents” (priority 1997, published 2002).

Molecular target: T1, OB-R (Homo sapiens, UniProt P48357)
T1 construct: The cytoplasmic domain and full-length human OB-R was cloned by PCR; expressed in transfected cells; host or cells: COS-7
T1 sequence (P48357 22-1165): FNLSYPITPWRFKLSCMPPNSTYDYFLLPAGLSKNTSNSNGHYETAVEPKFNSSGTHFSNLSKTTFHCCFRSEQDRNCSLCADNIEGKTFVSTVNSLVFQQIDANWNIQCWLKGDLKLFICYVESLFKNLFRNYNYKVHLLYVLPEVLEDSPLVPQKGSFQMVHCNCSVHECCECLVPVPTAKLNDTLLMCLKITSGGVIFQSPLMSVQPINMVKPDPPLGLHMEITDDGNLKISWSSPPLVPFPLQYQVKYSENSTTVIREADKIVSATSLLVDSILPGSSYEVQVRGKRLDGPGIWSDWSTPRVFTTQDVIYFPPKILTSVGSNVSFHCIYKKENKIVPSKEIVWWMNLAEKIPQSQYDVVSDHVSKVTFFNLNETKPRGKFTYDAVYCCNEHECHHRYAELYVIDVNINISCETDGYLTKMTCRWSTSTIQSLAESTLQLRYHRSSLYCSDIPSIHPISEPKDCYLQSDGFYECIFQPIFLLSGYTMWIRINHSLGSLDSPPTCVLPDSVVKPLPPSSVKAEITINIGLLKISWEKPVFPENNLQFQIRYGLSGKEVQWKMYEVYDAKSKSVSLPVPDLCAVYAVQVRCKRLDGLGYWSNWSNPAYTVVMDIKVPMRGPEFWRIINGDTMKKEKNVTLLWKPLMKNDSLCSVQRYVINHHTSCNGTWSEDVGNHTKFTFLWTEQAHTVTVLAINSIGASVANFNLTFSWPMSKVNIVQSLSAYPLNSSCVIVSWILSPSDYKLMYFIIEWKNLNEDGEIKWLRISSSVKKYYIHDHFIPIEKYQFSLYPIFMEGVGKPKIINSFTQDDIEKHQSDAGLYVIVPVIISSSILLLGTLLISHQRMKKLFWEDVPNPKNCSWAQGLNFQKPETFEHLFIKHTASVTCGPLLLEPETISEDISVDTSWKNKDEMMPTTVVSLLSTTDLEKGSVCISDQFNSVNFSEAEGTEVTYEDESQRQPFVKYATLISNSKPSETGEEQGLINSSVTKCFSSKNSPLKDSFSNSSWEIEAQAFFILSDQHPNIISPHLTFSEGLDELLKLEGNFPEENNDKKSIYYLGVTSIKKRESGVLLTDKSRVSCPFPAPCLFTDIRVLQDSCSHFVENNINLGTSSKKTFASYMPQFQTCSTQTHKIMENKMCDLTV
Assay: Immunoprecipitation and western blotting of tyrosine phosphorylation, leptin-stimulated COS cells expressing OB-R
Type: cell-based
Settings: 100 ng/ml human leptin for 10 min
Procedure: The cytoplasmic domain and full-length human OB-R was cloned by PCR using human fetal liver and adipocyte cDNA (Clontech) and cloned into the expression vectors pCMX and pMT21. Chimeric receptors were constructed by fusing the extracellular domain and transmembrane domain of TrkC (amino acids 1 to 458) to the cytoplasmic domain of OB-R (amino acids 865-1165). A triple myc epitope tag was added at the C-terminus of all OB-R constructs (18). Truncation and point mutant constructs were generated by PCR and the sequences of all constructs were verified. Expression constructs were transfected into COS-7 cells using lipofectamine (GIBCO-BRL); 36-48 hours after transfection, cells were starved for either 2 hour,s for chimeric receptors or overnight for full-length receptors prior to stimulation.
Cells were stimulated with 50 ng/ml of human NT-3 for 15 min or 100 ng/ml of human leptin (R&D Systems) for 10 min. Cells were then lysed in a 1% Brij 96 buffer and receptor was immunoprecipitated with anti-myc antibody 9E10 (18) followed by protein G-sepharose (Pharmacia). Unbound lysate was then immunoprecipitated with anti-P-Tyr antibody (UBI, Lake Placid) or agarose-conjugated anti-SHP-2 antibody (Santa Cruz Biotechnology). […] Endogenous STAT3, SHP-2, Jak1 and Jak2 is being detected in all immunoblotting experiments. […]

leptin: the product of the obese gene, secreted by adipocytes; ligand of OB-R
tyrosine phosphorylation of receptor, STAT3 and SHP-2: results in phosphorylation of the receptor, STAT3 and SHP-2
